Assay results: the Immune Epitope Database (IEDB)

Experiments:
HLA-B*48:01 = assay: IEDB peptide-MHC binding, purified MHC/direct/fluorescence; filed as Kd, often an IC50 or EC50 that approximates it; ≥ and ≤ were set here for values at or beyond the usual limits of such assays
HLA-A*26:01 [1] = assay: as above; conditions: source organism: Mammarenavirus amapariense
HLA-A*03:01 [2] = assay: IEDB peptide-MHC binding, purified MHC/competitive/fluorescence; ≥ and ≤ were set here for values at or beyond the usual limits of such assays
HLA-A*11:01 [3] = assay: as above
HLA-A*02:01 [4] = assay: as above
HLA-A*02:01 [5] = assay: IEDB peptide-MHC binding, purified MHC/competitive/fluorescence; filed as Kd, often an IC50 or EC50 that approximates it; ≥ and ≤ were set here for values at or beyond the usual limits of such assays; conditions: source organism: Burkholderia mallei SAVP1
HLA-A*02:19 [6] = assay: as above; conditions: source organism: Burkholderia mallei SAVP1
HLA-B*27:05 = assay: IEDB peptide-MHC binding, purified MHC/direct/fluorescence; filed as Kd, often an IC50 or EC50 that approximates it; ≥ and ≤ were set here for values at or beyond the usual limits of such assays
HLA-A*01:01 = assay: as above
HLA-B*07:02 = assay: as above
HLA-B*15:01 = assay: as above
HLA-A*02:01 [7] = assay: as above
HLA-A*03:01 [8] = assay: as above
HLA-B*57:01 [9] = assay: as above
HLA-B*58:01 = assay: as above
HLA-B*15:17 = assay: as above
HLA-B*39:01 = assay: IEDB peptide-MHC binding, purified MHC/competitive/fluorescence; filed as Kd, often an IC50 or EC50 that approximates it; ≥ and ≤ were set here for values at or beyond the usual limits of such assays; conditions: source organism: Influenza A virus (A/ruddy turnstone/Delaware/67/1998(H12N4))
HLA-B*18:01 [10] = assay: as above; conditions: source organism: Influenza A virus (A/ruddy turnstone/Delaware/67/1998(H12N4))
HLA-A*69:01 [11] = assay: as above; conditions: source organism: Influenza A virus (A/ruddy turnstone/Delaware/67/1998(H12N4))
HLA-B*27:03 = assay: as above; conditions: source organism: Influenza A virus (A/ruddy turnstone/Delaware/67/1998(H12N4))
HLA-B*51:01 = assay: as above; conditions: source organism: Influenza A virus (A/ruddy turnstone/Delaware/67/1998(H12N4))
HLA-A*26:01 [12] = assay: as above; conditions: source organism: Influenza A virus (A/ruddy turnstone/Delaware/67/1998(H12N4))
HLA-B*57:01 [13] = assay: as above; conditions: source organism: Influenza A virus (A/ruddy turnstone/Delaware/67/1998(H12N4))
HLA-B*46:01 [14] = assay: as above; conditions: source organism: Influenza A virus (A/ruddy turnstone/Delaware/67/1998(H12N4))
HLA-A*02:12 = assay: IEDB peptide-MHC binding, purified MHC/direct/fluorescence; filed as Kd, often an IC50 or EC50 that approximates it; ≥ and ≤ were set here for values at or beyond the usual limits of such assays; conditions: source organism: Influenza A virus (A/ruddy turnstone/Delaware/67/1998(H12N4))
HLA-A*02:03 = assay: as above; conditions: source organism: Influenza A virus (A/ruddy turnstone/Delaware/67/1998(H12N4))
HLA-A*68:02 = assay: as above; conditions: source organism: Influenza A virus (A/ruddy turnstone/Delaware/67/1998(H12N4))
HLA-A*11:01 [15] = assay: as above
HLA-A*02:19 [16] = assay: as above; conditions: source organism: Influenza A virus (A/ruddy turnstone/Delaware/67/1998(H12N4))
HLA-A*24:02 = assay: IEDB peptide-MHC binding, purified MHC/competitive/fluorescence; ≥ and ≤ were set here for values at or beyond the usual limits of such assays; conditions: source organism: Zaire ebolavirus
HLA-B*08:01 = assay: IEDB peptide-MHC binding, purified MHC/direct/fluorescence; filed as Kd, often an IC50 or EC50 that approximates it; ≥ and ≤ were set here for values at or beyond the usual limits of such assays
HLA-B*18:01 [17] = assay: as above
HLA-A*69:01 [18] = assay: as above; conditions: source organism: Bacillus anthracis
HLA-B*40:01 = assay: as above
HLA-A*31:01 = assay: as above; conditions: source organism: Bacillus anthracis
HLA-B*46:01 [19] = assay: as above; conditions: source organism: Bacillus anthracis
HLA-B*44:02 = assay: as above; conditions: source organism: Influenza A virus (A/chicken/CA/375TR/2002(H6N2))
HLA-A*29:02 = assay: IEDB peptide-MHC binding, purified MHC/competitive/fluorescence; filed as Kd, often an IC50 or EC50 that approximates it; ≥ and ≤ were set here for values at or beyond the usual limits of such assays
[20] = source organism: Zaire ebolavirus
[21] = source organism: Sudan ebolavirus
[22] = source organism: Coxiella burnetii
[23] = source organism: Vaccinia virus Copenhagen
[24] = source organism: Bacillus anthracis
[25] = source organism: Influenza A virus (A/chicken/CA/375TR/2002(H6N2))

Q: AEWGWTATM was tested. Which Kd (HLA-B*48:01; source organism: Giardia lamblia ATCC 50803) did it give?
A: Its Kd is at least 20 µM.

Q: For EKPGNRNPY, which Kd (HLA-A*26:01 [1]) is on record?
A: Its Kd is 2.78 µM.

Q: FTVVSNGAK was tested. Which IC50 (HLA-A*03:01 [2]; [20]) did it give?
A: The IC50 was 17.7 µM.

Q: And the IC50 (HLA-A*11:01 [3]; [20])?
A: Its IC50 is 1.51 µM.

Q: GLRKRSRRQ was tested. Which IC50 (HLA-A*03:01 [2]; [21]) did it give?
A: The IC50 was 46.4 µM.

Q: Which IC50 (HLA-A*02:01 [4]; [21]) does the source give for GLSLLQLPR here?
A: Its IC50 is 16.8 µM.

Q: And the IC50 (HLA-A*03:01 [2]; [21])?
A: The IC50 was 2.19 µM.

Q: And the IC50 (HLA-A*11:01 [3]; [21])?
A: Its IC50 is 3.53 µM.

Q: Which results are given for IMALKQAGL?
A: Kd (HLA-A*02:01 [5]): 0.0445 µM; Kd (HLA-A*02:19 [6]): 0.0045 µM

Q: Which results are given for ITLYEYDHF?
A: Kd (HLA-B*27:05; [22]): ≥ 20 µM; Kd (HLA-A*01:01; [22]): ≥ 20 µM; Kd (HLA-B*07:02; [22]): ≥ 20 µM; Kd (HLA-B*15:01; [22]): ≥ 20 µM; Kd (HLA-A*02:01 [7]; [22]): ≥ 20 µM; Kd (HLA-A*03:01 [8]; [22]): ≥ 20 µM; Kd (HLA-B*57:01 [9]; [22]): 0.13 µM; Kd (HLA-B*58:01; [22]): 0.885 µM; Kd (HLA-B*15:17; [22]): 0.0126 µM

Q: For IVFMWAIHH, which Kd (HLA-B*39:01) is on record?
A: The Kd was at least 20 µM.

Q: What about the Kd (HLA-B*18:01 [10]) of the same sequence?
A: Its Kd is at least 20 µM.

Q: What about the Kd (HLA-A*69:01 [11]) of the same sequence?
A: Its Kd is at least 20 µM.

Q: What about the Kd (HLA-B*27:03) of the same sequence?
A: The Kd was at least 20 µM.

Q: What about the Kd (HLA-B*51:01) of the same sequence?
A: Its Kd is at least 20 µM.

Q: What about the Kd (HLA-A*26:01 [12]) of the same sequence?
A: The Kd was at least 20 µM.

Q: What about the Kd (HLA-B*57:01 [13]) of the same sequence?
A: Its Kd is at least 20 µM.

Q: What about the Kd (HLA-B*46:01 [14]) of the same sequence?
A: The Kd was at least 20 µM.

Q: What about the Kd (HLA-A*02:12) of the same sequence?
A: The Kd was at least 20 µM.

Q: And the Kd (HLA-A*02:03)?
A: The Kd was at least 20 µM.

Q: And the Kd (HLA-A*68:02)?
A: Its Kd is at least 20 µM.

Q: What about the Kd (HLA-A*11:01 [15]; source organism: Influenza A virus (A/ruddy turnstone/Delaware/67/1998(H12N4))) of the same sequence?
A: The Kd was 0.187 µM.

Q: What about the Kd (HLA-A*02:19 [16]) of the same sequence?
A: Its Kd is at least 20 µM.

Q: How did the IC50 (HLA-A*03:01 [2]; source organism: Human papillomavirus 16) turn out when KFYSKISEY was run?
A: The IC50 was 3 µM.

Q: How did the IC50 (HLA-A*02:01 [4]; [23]) turn out when KLYKNKSKQ was run?
A: The IC50 was at least 81.8 µM.

Q: And the IC50 (HLA-A*03:01 [2]; [23])?
A: Its IC50 is 3.01 µM.

Q: What about the IC50 (HLA-A*11:01 [3]; [23]) of the same sequence?
A: The IC50 was at least 1360 µM.

Q: Which results are given for LLPAVSSGK?
A: IC50 (HLA-A*24:02): ≥ 79.6 µM; IC50 (HLA-A*02:01 [4]; [20]): ≥ 73.6 µM; IC50 (HLA-A*03:01 [2]; [20]): 1.9 µM; IC50 (HLA-A*11:01 [3]; [20]): 3.64 µM

Q: PTDYAKPQY was tested. Which Kd (HLA-B*08:01; source organism: Bacillus anthracis str. A2012) did it give?
A: Its Kd is at least 20 µM.

Q: And the Kd (HLA-B*48:01; [24])?
A: Its Kd is at least 20 µM.

Q: What about the Kd (HLA-B*27:05; [24]) of the same sequence?
A: The Kd was at least 20 µM.

Q: What about the Kd (HLA-B*18:01 [17]; [24]) of the same sequence?
A: The Kd was at least 20 µM.

Q: And the Kd (HLA-A*69:01 [18])?
A: Its Kd is at least 20 µM.

Q: What about the Kd (HLA-A*01:01; [24]) of the same sequence?
A: Its Kd is 0.0525 µM.

Q: What about the Kd (HLA-B*07:02; [24]) of the same sequence?
A: Its Kd is at least 20 µM.

Q: And the Kd (HLA-B*40:01; [24])?
A: The Kd was at least 20 µM.

Q: And the Kd (HLA-B*15:01; [24])?
A: The Kd was at least 20 µM.

Q: And the Kd (HLA-A*02:01 [7]; [24])?
A: Its Kd is at least 20 µM.

Q: What about the Kd (HLA-A*03:01 [8]; [24]) of the same sequence?
A: Its Kd is at least 20 µM.

Q: What about the Kd (HLA-A*31:01) of the same sequence?
A: The Kd was at least 20 µM.

Q: What about the Kd (HLA-B*57:01 [9]; [24]) of the same sequence?
A: Its Kd is at least 20 µM.

Q: What about the Kd (HLA-B*58:01; [24]) of the same sequence?
A: Its Kd is at least 20 µM.

Q: What about the Kd (HLA-A*11:01 [15]; [24]) of the same sequence?
A: The Kd was at least 20 µM.

Q: And the Kd (HLA-B*15:17; [24])?
A: Its Kd is at least 20 µM.

Q: What about the Kd (HLA-B*46:01 [19]) of the same sequence?
A: Its Kd is at least 20 µM.

Q: How did the Kd (HLA-B*18:01 [17]; [25]) turn out when REITFHGAK was run?
A: Its Kd is 1.22 µM.

Q: What about the Kd (HLA-B*44:02) of the same sequence?
A: The Kd was at least 20 µM.

Q: What about the Kd (HLA-B*40:01; [25]) of the same sequence?
A: Its Kd is 0.412 µM.

Q: With RKNGGNFLL as the sequence, how does the Kd (HLA-B*48:01; source organism: Campylobacter jejuni subsp. jejuni 81116) read?
A: The Kd was 0.145 µM.

Q: SMKTRTAWF was tested. Which Kd (HLA-B*08:01; source organism: Yersinia pestis CA88-4125) did it give?
A: Its Kd is 0.007 µM.

Q: STIGYALKH was tested. Which Kd (HLA-A*29:02; source organism: Bacillus anthracis str. CDC 684) did it give?
A: The Kd was 0.0394 µM.

Q: Which Kd (HLA-A*29:02; source organism: Cryptosporidium parvum Iowa II) does the source give for STSDGKHLQ here?
A: Its Kd is 0.284 µM.

Q: How did the Kd (HLA-A*29:02; source organism: Vibrio cholerae 2740-80) turn out when VDFGIIWRY was run?
A: Its Kd is 0.1 µM.

Q: Which results are given for VTGILQLPR?
A: IC50 (HLA-A*03:01 [2]; [20]): 6.83 µM; IC50 (HLA-A*11:01 [3]; [20]): 0.36 µM

Q: Which Kd (HLA-A*29:02; source organism: Vibrio vulnificus YJ016) does the source give for YDPARYPLY here?
A: The Kd was 0.0305 µM.
